We go through 2 molecules from patent US8460664 (ACADEMIA SINICA, dated 2013).

In test [1] the target is mIgE.FcL on transfected Ramos cells (human, UniProt P01854 104-546, limits assumed). The test can be described thus: cell-based or functional assay.
Test [2] concerns the target T1, mIgE.FcS on transfected CHO cells (human, UniProt P01854-3 104-494, limits assumed).
T1 construct: domain: CH2 domain through the cytoplasmic end of mεS (CH2-CM), on cells; Lacks the CεmX domain; No coreceptors are present in CHO cells; also called CHO cells expressing mIgE.FcS; mεS(CH2-CM)
The test can be described thus: flow cytometry, hybridoma supernatants.
Source text: (§2) We further tested the ability of various CεmX-specific monoclonal antibodies to bind to CHO and Ramos cell lines that were transfected with either recombinant DNA encoding mε_{L(CH2-CM)} or mε_{S(CH2-CM)}. […] The transfected two Ramos cell lines respectively produced mIgE.Fc_L or mIgE.Fc_S, both of which form complexes with their native coreceptors. To investigate the binding of anti-CεmX mAbs to native CεmX, CHO or Ramos cells expressing mIgE.Fc_L or mIgE.Fc_S were resuspended in FACS buffer [PBS, 1% FBS, 0.1% sodium azide, and 2 mM EDTA (pH 8.0)] at a cell density of 10^7 cells/ml. 10^6 cells were then incubated for 30 min on ice with 100 μl of hybridoma supernatants, followed by washing with FACS buffer. Bound antibodies were detected by incubation for 30 minutes on ice with FITC-labeled rabbit F(ab')_2 fragment specific for mouse IgG (AbD Secrotec), followed by washing twice with FACS buffer prior to analysis. Flow cytometry experiments were performed using a FACSCanto II flow cytometer (BD Bioscience) and analyzed using FCSExpress software (De Novo Software).

Test [3] deals with T2, mIgE.FcS on transfected Ramos cells (human, UniProt P01854-3 104-494, limits assumed).
T2 construct: domain: CH2 domain through the cytoplasmic end of mεS (CH2-CM), on cells; Lacks the CεmX domain; It forms complexes with the native coreceptors of Ramos cells; also called Ramos cells expressing mIgE.FcS; mεS(CH2-CM)
T2 sequence (P01854 other isoform, or with tags, fused parts or gaps limits assumed): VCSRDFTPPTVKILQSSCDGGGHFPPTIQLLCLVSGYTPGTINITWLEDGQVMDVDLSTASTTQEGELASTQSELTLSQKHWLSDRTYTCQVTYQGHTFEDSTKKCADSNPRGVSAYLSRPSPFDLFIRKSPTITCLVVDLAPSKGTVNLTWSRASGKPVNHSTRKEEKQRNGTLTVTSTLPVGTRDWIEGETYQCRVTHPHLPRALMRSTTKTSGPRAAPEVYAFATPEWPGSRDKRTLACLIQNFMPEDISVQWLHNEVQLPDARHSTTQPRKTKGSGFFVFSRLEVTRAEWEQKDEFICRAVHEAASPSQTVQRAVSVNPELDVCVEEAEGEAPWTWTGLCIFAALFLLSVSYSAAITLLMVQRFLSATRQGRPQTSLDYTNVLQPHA
The test can be described thus: flow cytometry, hybridoma supernatants.
Source text: as §2

In a further test the target is T3, P1 peptide (human).
T3 construct: Synthetic peptide
T3 peptide: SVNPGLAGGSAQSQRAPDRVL
The test can be described thus: ELISA, 1 µg/ml antibody on coated peptide (500 ng/well). On the procedure: (§1) To explore the specificity of anti-CεmX mAbs to CεmX, the various CεmX-specific clones were then tested for reactivity with 3 synthetic peptides, representing 3 consecutive segments of CεmX, divided by a C residue located at residue #18 and a CHC segment at residues #39-41. Specifically, P1 peptide contains the last 4 amino acid residues of CH4 of Mε and first 17 amino acid residues (#1-17), namely, […] (SEQ ID NO:2), of CεmX; P2 peptide contains 20 amino acid residues #19-38, namely, […] (SEQ ID NO:3), of CεmX; P3 peptide contains the terminal 11 amino acid residues (#42-52), namely, […]_(SEQ ID NO:4), of CεmX and first 4 amino acid residues of the consecutive migis region, namely, the N-terminal extracellular region of the membrane anchor peptide of Mε chain. All peptides were synthesized at Genomics Research Center, Academia Sinica (Taipei, Taiwan). The peptides were reconstituted with PBS at a concentration of 10 mg/ml. All peptides were coated on 96-well MaxiSorp plates at 500 ng/well in 0.1M NaCO_3 (pH 9.6) at 4° C. overnight. Coated wells were blocked by 200 μl/well of 1% BSA in PBS at room temperature for 1 hour. Plates were washed three times with 200 μl/well of PBS with 0.05% Tween-20, followed by adding 100 μl of 1 μg/ml anti-CεmX mAbs to wells.
On the technique in general: ELISA stands for enzyme-linked immunosorbent assay.

The next test addresses T4, P3 peptide (human).
T4 peptide: GAGRADWPGPPELDV
In words: ELISA on coated peptide (500 ng/well). On the procedure:
as §1

T1 sequence (P01854 other isoform, or with tags, fused parts or gaps limits assumed): as the sequence (P01854 other isoform, or with tags, fused parts or gaps limits assumed) above
mIgE.FcL on transfected Ramos cells, sequence (P01854 104-546 limits assumed): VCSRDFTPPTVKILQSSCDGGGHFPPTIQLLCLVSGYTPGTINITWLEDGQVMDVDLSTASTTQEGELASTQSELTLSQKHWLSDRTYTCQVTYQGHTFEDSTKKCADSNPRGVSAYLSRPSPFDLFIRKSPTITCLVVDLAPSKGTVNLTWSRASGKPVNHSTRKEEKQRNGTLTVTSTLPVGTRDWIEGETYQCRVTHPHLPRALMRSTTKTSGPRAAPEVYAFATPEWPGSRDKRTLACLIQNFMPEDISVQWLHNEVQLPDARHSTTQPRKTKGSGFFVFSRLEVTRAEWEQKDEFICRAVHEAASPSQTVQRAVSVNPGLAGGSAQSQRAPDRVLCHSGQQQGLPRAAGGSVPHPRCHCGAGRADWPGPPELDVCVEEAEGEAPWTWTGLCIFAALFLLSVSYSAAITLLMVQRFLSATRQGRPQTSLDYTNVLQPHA

B1: chimeric 4B12 (antibody, V domains shown)
VH: DVQLQESGPGLVKPSQSLSLTCTVTGYSITSDYAWNWIRQFPGNKLEWMGSISYSGITGYNPSLKSRISVTRDTSKNQFFLQLNSVTTEDTATYYCARMGYDGLAYWGHGTTVTVSA
VL: DVLMTQTPLSLPVSLGDQASISCRSSQSIVHSNGNTYLEWYLQKPGQSPKLLIYKVSNRFSGVPDRFSGSGSGTDFTFKISRVEAEDLGVYYCFQGSHVPPTFGGGTKLEIKR
As to B1, the “ADCC, specific lysis at an E/T ratio of 50 (antibody 1 µg/ml, PBMC effectors)” value in test [1] was ≤ 60%.

B2: mouse monoclonal antibody 4B12 (antibody, V domains shown)
VH: B1 VH
VL: B1 VL
notes: Mouse hybridoma IgG, detected with anti-mouse IgG; also called parental mouse 4B12
With B2, the binding result in test [2] is listed as “no binding”; in test [3], “no binding”; with P1 peptide, “binds”; with P3 peptide, “no binding (tested: 1 µg/ml)”.
